# In publication PMC10804554, “The DNA damage sensor ATM kinase interacts with the p53 mRNA and guides the DNA damage response pathway” (Molecular Cancer, 2024):
# Molecular target: T1, recombinant MDM2 protein (UniProt Q00987 1-491)
# T1 construct: MDM2 E3 ubiquitin ligase, recombinant version used in sandwich ELISA; Source, limits and tags of the recombinant MDM2 may stand in Supplementary Methods; source: recombinant
# Experiment: ELISA; protein-protein sandwich ELISA on 96-well plates with his-tagged recombinant FAT or PI3K domain and recombinant MDM2; details in Supplementary Methods
# T1 sequence (Q00987 whole entry): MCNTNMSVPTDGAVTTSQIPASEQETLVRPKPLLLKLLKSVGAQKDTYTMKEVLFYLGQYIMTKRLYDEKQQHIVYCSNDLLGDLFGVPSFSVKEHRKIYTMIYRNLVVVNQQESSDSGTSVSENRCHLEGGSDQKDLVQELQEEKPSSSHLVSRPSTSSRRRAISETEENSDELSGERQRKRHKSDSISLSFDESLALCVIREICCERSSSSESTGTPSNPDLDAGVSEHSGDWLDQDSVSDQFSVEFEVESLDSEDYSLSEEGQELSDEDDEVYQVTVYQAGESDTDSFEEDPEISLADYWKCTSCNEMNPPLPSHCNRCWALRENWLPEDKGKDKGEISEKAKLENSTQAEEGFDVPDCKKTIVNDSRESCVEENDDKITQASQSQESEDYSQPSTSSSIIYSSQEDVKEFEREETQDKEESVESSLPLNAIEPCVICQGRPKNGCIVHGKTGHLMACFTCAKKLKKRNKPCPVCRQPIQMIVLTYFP
binder,measurement,value
"recombinant PI3K domain of ATM (rPI3K), his-tagged (domain or fragment) FKAEFRLAGGVNLPKIIDCVGSDGKERRQLVKGRDDLRQDAVMQQVFQMCNTLLQRNTETRKRKLTICTYKVVPLSQRSGVLEWCTGTVPIGEFLVNNEDGAHKRYRPNDFSAFQCQKKMMEVQKKSFEEKYEVFMDVCQNFQPVFRYFCMEKFLDPAIWFEKRLAYTRSVATSSIVGYILGLGDRHVQNILINEQSAELVHIDLGVAFEQGKILPTPETVPFRLTRDIVDGMGITGVEGVFRRCCEKTMEVMRNSQETLLTIVEVLLYDPLFDWTMNPLKALYLQQRPEDETELHPTLNADDQECKRNLSDI",Kd,186 nM
"recombinant FAT domain of ATM (rFAT), his-tagged (domain or fragment) EVAKVAQSCAAHFTALLYAEIYADKKSMDDQEKRSLAFEEGSQSTTISSLSEKSKEETGISLQDLLLEIYRSIGEPDSLYGCGGGKMLQPITRLRTYEHEAMWGKALVTYDLETAIPSSTRQAGIIQALQNLGLCHILSVYLKGLDYENKDWCPELEELHYQAAWRNMQWDHCTSVSKEVEGTSYHESLYNALQSLRDREFSTFYESLKYARVKEVEEMCKRSLESVYSLYPTLSRLQAIGELESIGELFSRSVTHRQLSEVYIKWQKHSQLLKDSDFSFQEPIMALRTVILEILMEKEMDNSQRECIKDILTKHLVELSILARTFKNTQLPERAIFQIKQYNSVSCGVSEWQLEEAQVFWAKKEQSLALSILKQMIKKLDASCAANNPSLKLTYTECLRVCGNWLAETCLENPAVIMQTYLEKAVEVAGNYDGESSDELRNGKMKAFLSLARFSDTQYQRIENYMKSSEFENKQALLKRAKEEVGLLREHKIQTNRYTVKVQRELELDELALRALKEDRKRFLCKAVENYINCLLSGEEHDMWVFRLCSLWLENSGVSEVNGMMKRDGMKIPTYKFLPLMYQLAARMGTKMMGGLGFHEVLNNLISRISMDHPHHTLFIILALANA",Kd,30 nM
